This passage reports percent infected results from the supplement of paper PMC3353916.

The data set concerns Sindbis virus TE/5'2J-GFP. The data set is described as follows: percent infected (GFP+ in RFP+ ISG-expressing cells); higher = more infection (less antiviral activity). As to the method:
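Confirmatory testing of 87 ISGs. Triplicate wells of BHK/HA-Zeo (control) or BHK/NZAP-Zeo (ZAP) cells were transduced with lentiviruses co-expressing a human ISG plus TagRFP, then infected 48 h later with SINV TE/5'2J-GFP (moi 5). The % GFP+ cells among RFP+ cells was measured by flow cytometry at 8 h post infection. Fluc lentivirus served as control. Three independent experiments.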

[1] abbreviates: experiment: confirmatory screen 1, BHK/HA-Zeo (control).
Setting [2] is: experiment: confirmatory screen 1, BHK/NZAP-Zeo (ZAP).
The mark [3] stands for this setting: experiment: confirmatory screen 2, BHK/HA-Zeo (control).
The mark [4] stands for this setting: experiment: confirmatory screen 2, BHK/NZAP-Zeo (ZAP).
Where [5] appears, read: experiment: confirmatory screen 3, BHK/HA-Zeo (control).
The mark [6] stands for this setting: experiment: confirmatory screen 3, BHK/NZAP-Zeo (ZAP).

± gives the standard deviation of the averaged measurements.
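Note: Interferon-defective BHK-21 derivatives, ZAP line overexpressing the rat ZAP N-terminal zinc finger domain fused to Zeocin resistance, GFP scored within live singlet TagRFP+ cells.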

“MQEGELAISPISPVAAMPPLGTHVQARCEAQINLLGEGGICKLPGRLRIQPALWSREDVLHWLRWAEQEYSLPCTAEHGFEMNGRALCILTKDDFRHRAPSSGDVLYELLQYIKTQRRALVCGPFFGGIFRLKTPTQHSPVPPEEVTGPSQMDTRRGHLLQPPDPGLTSNFGHLDDPGLARWTPGKEESLNLCHCAELGCRTQGVCSFPAMPQAPIDGRIADCRLLWDYVYQLLLDTRYEPYIKWEDKDAKIFRVVDPNGLARLWGNHKNRVNMTYEKMSRALRHYYKLNIIKKEPGQKLLFRFLKTPGKMVQDKHSHLEPLESQEQDRIEFKDKRPEISP [ETV7]”: the percent infected turned out to be 95.31 ± 0.45% under setting [1]; 67.2 ± 4% under setting [2]; 95.82 ± 0.54% under setting [3]; 95.28 ± 0.2% under setting [4]; 93 ± 1.6% under setting [5]; 93.56 ± 0.55% under setting [6].
Take “MRRLWGAARKPSGAGWEKEWAEAPQEAPGAWSGRLGPGRSGRKGRAVPGWASWPAHLALAARPARHLGGAGQGPRPLHSGTAPFHSRASGERQRRLEPQLQHESRCRSSTPADAWRAEAALPVRAMGAPWGSPTAAAGGRRGWRRGRGLPWTVCVLAAAGLTCTALITYACWGQLPPLPWASPTPSRPVGVLLWWEPFGGRDSAPRPPPDCRLRFNISGCRLLTDRASYGEAQAVLFHHRDLVKGPPDWPPPWGIQAHTAEEVDLRVLDYEEAAAAAEALATSSPRPPGQRWVWMNFESPSHSPGLRSLASNLFNWTLSYRADSDVFVPYGYLYPRSHPGDPPSGLAPPLSRKQGLVAWVVSHWDERQARVRYYHQLSQHVTVDVFGRGGPGQPVPEIGLLHTVARYKFYLAFENSQHLDYITEKLWRNALLAGAVPVVLGPDRANYERFVPRGAFIHVDDFPSASSLASYLLFLDRNPAVYRRYFHWRRSYAVHITSFWDEPWCRVCQAVQRAGDRPKSIRNLASWFER [FUT4]”: the percent infected came to 94.45 ± 0.48% under setting [1]; 62.4 ± 5.3% under setting [2]; 92 ± 1.1% under setting [3]; 94.23 ± 0.27% under setting [4]; 89 ± 2.8% under setting [5]; 92.68 ± 0.55% under setting [6].
For “MRSARSTALNRGEQRAVRYYSHMKLNMAEEEDYMSDSFINVQEDIRPGLPMLRQIREARRKEEKQQEANLKNRQKSLKEEEQERRDIGLKNALGCENKGFALLQKMGYKSGQALGKSGGGIVEPIPLNIKTGKSGIGHEASLKRKAEEKLESYRKKIHMKNQAEEKAAEQFRMRLKNKQDEMKLEGDLRRSQRACQQLDVQKNIQVPREAWYWLRLEEETEEDEEEKEQDEDEYKSEDLSVLEKLQILTSYLREEHLYCIWCGTAYEDKEDLSSNCPGPTSADHD [CCDC75]”, the percent infected runs as follows: under setting [1], 93.8 ± 1.8%; under setting [2], 56.8 ± 4.7%; under setting [3], 96.02 ± 0.47%; under setting [4], 95.39 ± 0.41%; under setting [5], 94.54 ± 0.85%; under setting [6], 92.82 ± 0.32%.
On to “MRSRLLLSVAHLPTIRETTEEMLLGGPGQEPPPSPSLDDYVRSISRLAQPTSVLDKATAQGQPRPPHRPAQACRKGRPAVSLRDITARFSGQQPTLPMADTVDPLDWLFGESQEKQPSQRDLPRRTGPSAGLWGPHRQMDSSKPMGAPRGRLCEARMPGHSLARPPQDGQQSSDLRSWTFGQSAQAMASRHRPRPSSVLRTLYSHLPVIHEL [C10orf10]”, for which the percent infected reads like this: under setting [1], 94.8 ± 1.7%; under setting [2], 63.9 ± 6.1%; under setting [3], 95.247 ± 0.086%; under setting [4], 94.42 ± 0.28%; under setting [5], 94.16 ± 0.87%; under setting [6], 92.8 ± 0.27%.
The sequence “MRTSYLLLFTLCLLLSEMASGGNFLTGLGHRSDHYNCVSSGGQCLYSACPIFTKIQGTCYRGKAKCCK [DEFB1]” displayed a percent infected under setting [1] of 97.13 ± 0.85%; a percent infected under setting [2] of 84.4 ± 1.1%; a percent infected under setting [3] of 95.11 ± 0.27%; a percent infected under setting [4] of 92.98 ± 0.91%; a percent infected under setting [5] of 91.66 ± 0.67%; a percent infected under setting [6] of 92.239 ± 0.055%.
